Laboratory results taken from patent US20260167721A1 (ABLEXIS, published 2026).

Assays:
[1] = molecular target: T1, CD3 on human donor PBMC / Pan T effector cells (human, UniProt P07766 23-207; P09693 23-182; P04234 22-171; P20963 22-164); assay: cell-based or functional assay
[2] = molecular target: T1, CD3 on human donor PBMC / Pan T …; assay: cell-based or functional assay; remark: listed apart in the source

T1 sequence (P07766 23-207, chain 1 of 4): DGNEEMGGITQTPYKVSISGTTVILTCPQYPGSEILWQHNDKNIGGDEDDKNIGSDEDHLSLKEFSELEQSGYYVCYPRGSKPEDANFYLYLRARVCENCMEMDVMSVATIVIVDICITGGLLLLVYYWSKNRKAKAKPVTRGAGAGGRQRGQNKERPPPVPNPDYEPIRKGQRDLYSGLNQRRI
T1 sequence (P09693 23-182, chain 2 of 4): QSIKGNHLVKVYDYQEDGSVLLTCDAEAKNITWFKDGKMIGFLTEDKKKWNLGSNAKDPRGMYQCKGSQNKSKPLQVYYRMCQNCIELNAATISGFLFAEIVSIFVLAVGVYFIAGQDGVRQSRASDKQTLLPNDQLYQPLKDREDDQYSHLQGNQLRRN
T1 sequence (P04234 22-171, chain 3 of 4): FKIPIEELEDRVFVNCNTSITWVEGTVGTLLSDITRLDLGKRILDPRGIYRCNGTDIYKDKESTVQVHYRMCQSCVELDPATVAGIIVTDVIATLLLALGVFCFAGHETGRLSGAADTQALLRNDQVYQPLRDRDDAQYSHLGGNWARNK
T1 sequence (P20963 22-164, chain 4 of 4): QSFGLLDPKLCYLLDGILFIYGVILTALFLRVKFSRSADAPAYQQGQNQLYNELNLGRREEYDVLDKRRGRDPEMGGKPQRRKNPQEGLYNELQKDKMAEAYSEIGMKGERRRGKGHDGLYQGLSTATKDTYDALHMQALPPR

Binder | Cytokine Release Assay (TNFα) Donor 0 EC50 [1] | Cytokine Release Assay (TNFα) Donor 0 gMFI max [1] | Cytokine Release Assay (TNFα) Donor 1 gMFI max [1] | Cytokine Release Assay (TNFα) Donor 2 EC50 [1] | Cytokine Release Assay (TNFα) Donor 2 gMFI max [1] | Cytokine Release Assay (TNFα) Donor 3 EC50 [1] | Cytokine Release Assay (TNFα) Donor 3 gMFI max [1] | Cytokine Release Assay (IL2) Donor 0 EC50 [2] | Cytokine Release Assay (IL2) Donor 0 gMFI max [2] | Cytokine Release Assay (IL2) Donor 1 EC50 [2] | Cytokine Release Assay (IL2) Donor 1 gMFI max [2] | Cytokine Release Assay (IL2) Donor 2 EC50 [2] | Cytokine Release Assay (IL2) Donor 2 gMFI max [2] | Cytokine Release Assay (IL2) Donor 3 EC50 [2] | Cytokine Release Assay (IL2) Donor 3 gMFI max [2]
CD3 × CD33-BspAb86 (bispecific antibody) chain 1: EVQLVESGGGLVKPGGSLRLSCAASGFTFSSYSMNWVRQAPGKCLEWVSSISRSGTYIYYADSVKGRFTISRDNAKNSLYLQMNSLRAEDTAVYYCARERWELLYFDYWGQGTLVTVSSGGGGSGGGGSGGGGSGGGGSQTVVTQEPSLTVSPGGTVTLTCASSTGAVTSGYYPNWFQQKPGQAPRALIYSTSNKHSWTPARFSGSLLGGKAALTLSGVQPEDEAEYYCLLYYGGAYVFGCGTKVTVLDKTHTCPPCPAPEFEGGPSVFLFPPKPKDTLMISRTPEVTCVVVDVSHEDPEVKFNWYVDGVEVHNAKTKPREEQYNSTYRVVSVLTVLHQDWLNGKEYKCKVSNKALPASIEKTISKAKGQPREPQVYTLPPCREEMTKNQVSLWCLVKGFYPSDIAVEWESNGQPENNYKTTPPVLDSDGSFFLYSKLTVDKSRWQQGNVFSCSVMHEALHNHYTQKSLSLSPGK chain 2: EVQLVQSGAEVKKPGSSVKVSCKASGYTITDSNIHWVRQAPGQSLEWIGYIYPYNGGTDYNQKFKNRATLTVDNPTNTAYMELSSLRSEDTAFYYCVNGNPWLAYWGQGTLVTVSSASTKGPSVFPLAPSSKSTSGGTAALGCLVKDYFPEPVTVSWNSGALTSGVHTFPAVLQSSGLYSLSSVVTVPSSSLGTQTYICNVNHKPSNTKVDKRVEPKSCDKTHTCPPCPAPEFEGGPSVFLFPPKPKDTLMISRTPEVTCVVVDVSHEDPEVKFNWYVDGVEVHNAKTKPREEQYNSTYRVVSVLTVLHQDWLNGKEYKCKVSNKALPASIEKTISKAKGQPREPQVCTLPPSREEMTKNQVSLSCAVKGFYPSDIAVEWESNGQPENNYKTTPPVLDSDGSFFLVSKLTVDKSRWQQGNVFSCSVMHEALHNRFTQKSLSLSPGK chain 3: DIQLTQSPSTLSASVGDRVTITCRASESLDNYGIRFLTWFQQKPGKAPKLLMYAASNQGSGVPSRFSGSGSGTEFTLTISSLQPDDFATYYCQQTKEVPWSFGQGTKVEVKRTVAAPSVFIFPPSDEQLKSGTASVVCLLNNFYPREAKVQWKVDNALQSGNSQESVTEQDSKDSTYSLSSTLTLSKADYEKHKVYACEVTHQGLSSPVTKSFNRGEC | 2.15 nM | 34100 gMFI | 4900 gMFI | 2.19 nM | 10900 gMFI | 5.58 nM | 25200 gMFI | 4.13 nM | 34400 gMFI | 4.24 nM | 18800 gMFI | 6.46 nM | 22100 gMFI | 3.52 nM | 42100 gMFI
CD3 × CD33-BspAb105 (bispecific antibody) chain 1: SYELTQPPSVSVSPGQTARITCSGDALPKKYAYWYQQKSGQAPVLVIYEDSKRPSGIPERFSGSSSGTMATLTISGAQVEDEADYYCYSTDSSGNHRVFGCGTKLTVLGGGGSGGGGSGGGGSGGGGSEVQLVESGGGLVKPGGSLRLSCAASGFTFSYYSMNWVRQAPGKCLEWVSSISRSTTYIYYADSVKGRFTISRDNAKNSLYLQMNSLRAEDTAVYYCARDGKGAIFLDYWGQGTLVTVSSDKTHTCPPCPAPEFEGGPSVFLFPPKPKDTLMISRTPEVTCVVVDVSHEDPEVKFNWYVDGVEVHNAKTKPREEQYNSTYRVVSVLTVLHQDWLNGKEYKCKVSNKALPASIEKTISKAKGQPREPQVYTLPPCREEMTKNQVSLWCLVKGFYPSDIAVEWESNGQPENNYKTTPPVLDSDGSFFLYSKLTVDKSRWQQGNVFSCSVMHEALHNHYTQKSLSLSPGK chain 2: EVQLVQSGAEVKKPGSSVKVSCKASGYTITDSNIHWVRQAPGQSLEWIGYIYPYNGGTDYNQKFKNRATLTVDNPTNTAYMELSSLRSEDTAFYYCVNGNPWLAYWGQGTLVTVSSASTKGPSVFPLAPSSKSTSGGTAALGCLVKDYFPEPVTVSWNSGALTSGVHTFPAVLQSSGLYSLSSVVTVPSSSLGTQTYICNVNHKPSNTKVDKRVEPKSCDKTHTCPPCPAPEFEGGPSVFLFPPKPKDTLMISRTPEVTCVVVDVSHEDPEVKFNWYVDGVEVHNAKTKPREEQYNSTYRVVSVLTVLHQDWLNGKEYKCKVSNKALPASIEKTISKAKGQPREPQVCTLPPSREEMTKNQVSLSCAVKGFYPSDIAVEWESNGQPENNYKTTPPVLDSDGSFFLVSKLTVDKSRWQQGNVFSCSVMHEALHNRFTQKSLSLSPGK chain 3: DIQLTQSPSTLSASVGDRVTITCRASESLDNYGIRFLTWFQQKPGKAPKLLMYAASNQGSGVPSRFSGSGSGTEFTLTISSLQPDDFATYYCQQTKEVPWSFGQGTKVEVKRTVAAPSVFIFPPSDEQLKSGTASVVCLLNNFYPREAKVQWKVDNALQSGNSQESVTEQDSKDSTYSLSSTLTLSKADYEKHKVYACEVTHQGLSSPVTKSFNRGEC |  | 5210 gMFI | 4470 gMFI |  | 5500 gMFI |  | 4390 gMFI | 0.454 nM | 16900 gMFI | 0.232 nM | 13400 gMFI |  | 15900 gMFI | 0.141 nM | 18000 gMFI
CD3 × CD33-BspAb90 (bispecific antibody) chain 1: not shown chain 2: EVQLVQSGAEVKKPGSSVKVSCKASGYTITDSNIHWVRQAPGQSLEWIGYIYPYNGGTDYNQKFKNRATLTVDNPTNTAYMELSSLRSEDTAFYYCVNGNPWLAYWGQGTLVTVSSASTKGPSVFPLAPSSKSTSGGTAALGCLVKDYFPEPVTVSWNSGALTSGVHTFPAVLQSSGLYSLSSVVTVPSSSLGTQTYICNVNHKPSNTKVDKRVEPKSCDKTHTCPPCPAPEFEGGPSVFLFPPKPKDTLMISRTPEVTCVVVDVSHEDPEVKFNWYVDGVEVHNAKTKPREEQYNSTYRVVSVLTVLHQDWLNGKEYKCKVSNKALPASIEKTISKAKGQPREPQVCTLPPSREEMTKNQVSLSCAVKGFYPSDIAVEWESNGQPENNYKTTPPVLDSDGSFFLVSKLTVDKSRWQQGNVFSCSVMHEALHNRFTQKSLSLSPGK chain 3: DIQLTQSPSTLSASVGDRVTITCRASESLDNYGIRFLTWFQQKPGKAPKLLMYAASNQGSGVPSRFSGSGSGTEFTLTISSLQPDDFATYYCQQTKEVPWSFGQGTKVEVKRTVAAPSVFIFPPSDEQLKSGTASVVCLLNNFYPREAKVQWKVDNALQSGNSQESVTEQDSKDSTYSLSSTLTLSKADYEKHKVYACEVTHQGLSSPVTKSFNRGEC | 0.136 nM | 61700 gMFI | 5330 gMFI | 0.0788 nM | 16000 gMFI | 0.0724 nM | 32800 gMFI | 0.0887 nM | 69600 gMFI | 0.0832 nM | 24300 gMFI | 0.0612 nM | 30000 gMFI |  | 79300 gMFI
CD3 × CD33-BspAb94 (bispecific antibody) chain 1: NFMLTQPHSVSESPGKTVTISCTRSSGSIASNYVQWYQQRPGSSPTTVIYEDNQRPSGVPDRFSGSIDSSSNSASLTISGLKTEDEADYYCQSYDSSNRVFGCGTKLTVLGGGGSGGGGSGGGGSGGGGSEVQLVESGGGLVKPGGSLRLSCAASGFTFSSYTMNWVRQAPGKCLEWVSSITTSSSYIYYADSVKGRFTISRDNAKNSLYLQMNSLRAEDTAVYYCARVTFDAFDIWGQGTMVTVSSDKTHTCPPCPAPEFEGGPSVFLFPPKPKDTLMISRTPEVTCVVVDVSHEDPEVKFNWYVDGVEVHNAKTKPREEQYNSTYRVVSVLTVLHQDWLNGKEYKCKVSNKALPASIEKTISKAKGQPREPQVYTLPPCREEMTKNQVSLWCLVKGFYPSDIAVEWESNGQPENNYKTTPPVLDSDGSFFLYSKLTVDKSRWQQGNVFSCSVMHEALHNHYTQKSLSLSPGK chain 2: EVQLVQSGAEVKKPGSSVKVSCKASGYTITDSNIHWVRQAPGQSLEWIGYIYPYNGGTDYNQKFKNRATLTVDNPTNTAYMELSSLRSEDTAFYYCVNGNPWLAYWGQGTLVTVSSASTKGPSVFPLAPSSKSTSGGTAALGCLVKDYFPEPVTVSWNSGALTSGVHTFPAVLQSSGLYSLSSVVTVPSSSLGTQTYICNVNHKPSNTKVDKRVEPKSCDKTHTCPPCPAPEFEGGPSVFLFPPKPKDTLMISRTPEVTCVVVDVSHEDPEVKFNWYVDGVEVHNAKTKPREEQYNSTYRVVSVLTVLHQDWLNGKEYKCKVSNKALPASIEKTISKAKGQPREPQVCTLPPSREEMTKNQVSLSCAVKGFYPSDIAVEWESNGQPENNYKTTPPVLDSDGSFFLVSKLTVDKSRWQQGNVFSCSVMHEALHNRFTQKSLSLSPGK chain 3: DIQLTQSPSTLSASVGDRVTITCRASESLDNYGIRFLTWFQQKPGKAPKLLMYAASNQGSGVPSRFSGSGSGTEFTLTISSLQPDDFATYYCQQTKEVPWSFGQGTKVEVKRTVAAPSVFIFPPSDEQLKSGTASVVCLLNNFYPREAKVQWKVDNALQSGNSQESVTEQDSKDSTYSLSSTLTLSKADYEKHKVYACEVTHQGLSSPVTKSFNRGEC |  | 5150 gMFI | 4670 gMFI |  | 4420 gMFI |  | 4110 gMFI |  | 13600 gMFI | 3.58 nM | 14800 gMFI |  | 12500 gMFI | 1.47 nM | 13900 gMFI
